The results in this text go back to patent publication US12097241B2, “Methods of treating kidney failure, and/or improving or stablizing renal function using modified relaxin polypeptides” (BRISTOL-MYERS SQUIBB COMPANY, priority 2017, dated 2024).

Like-named read-outs stand apart in the source and are kept apart here.

The nature of this data set: In vivo pharmacokinetic (PK) studies in rats. The arrangement: species or system Sprague-Dawley rats. To be noted: for AUC(0-inf): read-out: Rat PK AUC Total; for level at time molar at 24 h: read-out: Rat PK C24. As to the method: […] Blood samples were collected via jugular vein at different time points out to 72 hours. Blood samples were allowed to coagulate at room temperature (30-60 m) and then centrifuged (1500-2000) at 4° C. to obtain serum. After centrifugation serum samples were transferred to 96 well plates and stored at −80° C. until bioanalysis. Relaxin concentrations were measured from serum by ELISA.
Relaxin concentration-time profiles from individual animals were used for analysis. Pharmacokinetic parameters were calculated by non-compartmental methods using Phoenix WinNonlin (version 6.4) or Kinetica (version 5). Mean pharmacokinetic parameters Cmax, AUCinf, C24 and half-life were reported (Table 4). Table 4. In vivo PK data (abbreviations as in Table 3).

[1] abbreviates: rat, male Sprague-Dawley rats, single SC dose 1.0 mg/kg, serum ELISA.
Setting [2] is: rats, SC dose 1.0 mg/kg, adjusted from 0.5 mpk.
The mark [3] stands for this setting: rats, SC dose 1.0 mg/kg, adjusted from 0.3 mpk.

Regarding `CC[C@H](C)[C@@H]1NC(=O)[C@H](C)NC(=O)[C@H]([C@@H](C)CC)NC(=O)[C@H](CCC(N)=O)NC(=O)[C@H](C)NC(=O)[C@H](CCCNC(=N)N)NC(=O)[C@H](C(C)C)NC(=O)[C@H](CC(C)C)NC(=O)[C@H](CCC(=O)O)NC(=O)[C@H](CCCNC(=N)N)NC(=O)CNC(=O)[C@@H](NC(=O)[C@H](CC(C)C)NC(=O)[C@H](CCCCN)NC(=O)[C@@H](NC(=O)[C@@H](NC(=O)[C@H](CCC(=O)O)NC(=O)[C@H](CCC(=O)O)NC(=O)[C@H](CCSC)NC(=O)[C@H](Cc2c[nH]c3ccccc23)NC(=O)[C@H](CO)NC(=O)[C@H](C)N)C(C)C)[C@@H](C)CC)CSSC[C@@H]2NC(=O)[C@@H](NC(=O)[C@H](CCCCN)NC(=O)[C@H](CC(N)=O)NC(=O)[C@H](C)NC(=O)[C@H](CC(C)C)NC(=O)[C@H](C)NC(=O)[C@H](CO)NC(=O)[C@H](Cc3ccc(O)cc3)NC(=O)[C@H](CC(C)C)NC(=O)[C@@H](N)Cc3ccc(C(C)=NOCCNC(=O)[C@H](CCCCN)NC(=O)[C@H](CCCCN)NC(=O)[C@H](CCCCN)NC(=O)[C@H](CCCCN)NC(=O)[C@H](CCCCN)NC(=O)[C@H](CCCCN)NC(=O)CC[C@H](NC(=O)CCCCCCCCCCCCC(=O)O)C(=O)O)cc3)CSSC[C@H](NC(=O)CNC(=O)[C@H](C(C)C)NC(=O)[C@H](Cc3c[nH]cn3)NC2=O)C(=O)N[C@@H]([C@@H](C)O)C(=O)N[C@@H](CCCCN)C(=O)N[C@@H](CCCNC(=N)N)C(=O)N[C@@H](CO)C(=O)N[C@@H](CC(C)C)C(=O)N[C@@H](C)C(=O)N[C@@H](CCCNC(=N)N)C(=O)N[C@@H](Cc2ccccc2)C(=O)N[C@H](C(=O)O)CSSC[C@@H](C(=O)NCC(=O)N[C@@H](CCSC)C(=O)N[C@@H](CO)C(=O)N[C@H](C(=O)N[C@@H](Cc2c[nH]c3ccccc23)C(=O)N[C@@H](CO)C(=O)O)[C@@H](C)O)NC1=O` [AQ1-KKKKKK-Glu^γ-C13-COOH], under setting [1], the AUC(0-inf) was 0.038 µM·h and the level at time molar at 24 h came out at 0.05 nM.

As to `CC[C@H](C)[C@@H]1NC(=O)[C@H](C)NC(=O)[C@H]([C@@H](C)CC)NC(=O)[C@H](CCC(N)=O)NC(=O)[C@H](C)NC(=O)[C@H](CCCNC(=N)N)NC(=O)[C@H](C(C)C)NC(=O)[C@H](CC(C)C)NC(=O)[C@H](CCC(=O)O)NC(=O)[C@H](CCCNC(=N)N)NC(=O)CNC(=O)[C@@H](NC(=O)[C@H](CC(C)C)NC(=O)[C@H](CCCCN)NC(=O)[C@@H](NC(=O)[C@@H](NC(=O)[C@H](CCC(=O)O)NC(=O)[C@H](CCC(=O)O)NC(=O)[C@H](CCSC)NC(=O)[C@H](Cc2c[nH]c3ccccc23)NC(=O)[C@H](CO)NC(=O)[C@H](C)N)C(C)C)[C@@H](C)CC)CSSC[C@@H]2NC(=O)[C@@H](NC(=O)[C@H](CCCCN)NC(=O)[C@H](CC(N)=O)NC(=O)[C@H](C)NC(=O)[C@H](CC(C)C)NC(=O)[C@H](C)NC(=O)[C@H](CO)NC(=O)[C@H](Cc3ccc(O)cc3)NC(=O)[C@H](CC(C)C)NC(=O)[C@@H](N)Cc3ccc(C(C)=NOCCNC(=O)[C@H](CCC(=O)O)NC(=O)[C@H](CCC(=O)O)NC(=O)[C@H](CCC(=O)O)NC(=O)CNC(=O)CNC(=O)CNC(=O)CC[C@H](NC(=O)CCCCCCCCCCCCCC(=O)O)C(=O)O)cc3)CSSC[C@H](NC(=O)CNC(=O)[C@H](C(C)C)NC(=O)[C@H](Cc3c[nH]cn3)NC2=O)C(=O)N[C@@H]([C@@H](C)O)C(=O)N[C@@H](CCCCN)C(=O)N[C@@H](CCCNC(=N)N)C(=O)N[C@@H](CO)C(=O)N[C@@H](CC(C)C)C(=O)N[C@@H](C)C(=O)N[C@@H](CCCNC(=N)N)C(=O)N[C@@H](Cc2ccccc2)C(=O)N[C@H](C(=O)O)CSSC[C@@H](C(=O)NCC(=O)N[C@@H](CCSC)C(=O)N[C@@H](CO)C(=O)N[C@H](C(=O)N[C@@H](Cc2c[nH]c3ccccc23)C(=O)N[C@@H](CO)C(=O)O)[C@@H](C)O)NC1=O` [AQ1-EEEGGG-Glu^γ-C14-COOH], under setting [2], the “Rat PK AUC Total” value was 2.137 µM·h and the level at time molar at 24 h was found to be 5.2 nM.

Take `CC[C@H](C)[C@@H]1NC(=O)[C@H](C)NC(=O)[C@H]([C@@H](C)CC)NC(=O)[C@H](CCC(N)=O)NC(=O)[C@H](C)NC(=O)[C@H](CCCNC(=N)N)NC(=O)[C@H](C(C)C)NC(=O)[C@H](CC(C)C)NC(=O)[C@H](CCC(=O)O)NC(=O)[C@H](CCCNC(=N)N)NC(=O)CNC(=O)[C@@H](NC(=O)[C@H](CC(C)C)NC(=O)[C@H](CCCCN)NC(=O)[C@@H](NC(=O)[C@@H](NC(=O)[C@H](CCC(=O)O)NC(=O)[C@H](CCC(=O)O)NC(=O)[C@H](CCSC)NC(=O)[C@H](Cc2c[nH]c3ccccc23)NC(=O)[C@H](CO)NC(=O)[C@H](C)N)C(C)C)[C@@H](C)CC)CSSC[C@@H]2NC(=O)[C@@H](NC(=O)[C@H](CCCCN)NC(=O)[C@H](CC(N)=O)NC(=O)[C@H](C)NC(=O)[C@H](CC(C)C)NC(=O)[C@H](C)NC(=O)[C@H](CO)NC(=O)[C@H](Cc3ccc(O)cc3)NC(=O)[C@H](CC(C)C)NC(=O)[C@@H](N)Cc3ccc(C(C)=NOCCNC(=O)CNC(=O)CNC(=O)CNC(=O)CNC(=O)[C@H](CO)NC(=O)CC[C@H](NC(=O)CCCCCCCCCCCCCCC(=O)O)C(=O)O)cc3)CSSC[C@H](NC(=O)CNC(=O)[C@H](C(C)C)NC(=O)[C@H](Cc3c[nH]cn3)NC2=O)C(=O)N[C@@H]([C@@H](C)O)C(=O)N[C@@H](CCCCN)C(=O)N[C@@H](CCCNC(=N)N)C(=O)N[C@@H](CO)C(=O)N[C@@H](CC(C)C)C(=O)N[C@@H](C)C(=O)N[C@@H](CCCNC(=N)N)C(=O)N[C@@H](Cc2ccccc2)C(=O)N[C@H](C(=O)O)CSSC[C@@H](C(=O)NCC(=O)N[C@@H](CCSC)C(=O)N[C@@H](CO)C(=O)N[C@H](C(=O)N[C@@H](Cc2c[nH]c3ccccc23)C(=O)N[C@@H](CO)C(=O)O)[C@@H](C)O)NC1=O` [AQ1-GGGGS-Glu^γ-C15-COOH]: under setting [3], the “Rat PK AUC Total” value was 5.526 µM·h and the level at time molar at 24 h was 44 nM.

On to `CC[C@H](C)[C@@H]1NC(=O)[C@H](C)NC(=O)[C@H]([C@@H](C)CC)NC(=O)[C@H](CCC(N)=O)NC(=O)[C@H](C)NC(=O)[C@H](CCCNC(=N)N)NC(=O)[C@H](C(C)C)NC(=O)[C@H](CC(C)C)NC(=O)[C@H](CCC(=O)O)NC(=O)[C@H](CCCNC(=N)N)NC(=O)CNC(=O)[C@@H](NC(=O)[C@H](CC(C)C)NC(=O)[C@H](CCCCN)NC(=O)[C@@H](NC(=O)[C@@H](NC(=O)[C@H](CCC(=O)O)NC(=O)[C@H](CCC(=O)O)NC(=O)[C@H](CCSC)NC(=O)[C@H](Cc2c[nH]c3ccccc23)NC(=O)[C@H](CO)NC(=O)[C@H](C)N)C(C)C)[C@@H](C)CC)CSSC[C@@H]2NC(=O)[C@@H](NC(=O)[C@H](CCCCN)NC(=O)[C@H](CC(N)=O)NC(=O)[C@H](C)NC(=O)[C@H](CC(C)C)NC(=O)[C@H](C)NC(=O)[C@H](CO)NC(=O)[C@H](Cc3ccc(O)cc3)NC(=O)[C@H](CC(C)C)NC(=O)[C@@H](N)Cc3ccc(C(C)=NOCCNC(=O)CNC(=O)CNC(=O)CNC(=O)[C@H](CCC(=O)O)NC(=O)[C@H](CCC(=O)O)NC(=O)[C@H](CCC(=O)O)NC(=O)CC[C@H](NC(=O)CCCCCCCCCCCCC(=O)O)C(=O)O)cc3)CSSC[C@H](NC(=O)CNC(=O)[C@H](C(C)C)NC(=O)[C@H](Cc3c[nH]cn3)NC2=O)C(=O)N[C@@H]([C@@H](C)O)C(=O)N[C@@H](CCCCN)C(=O)N[C@@H](CCCNC(=N)N)C(=O)N[C@@H](CO)C(=O)N[C@@H](CC(C)C)C(=O)N[C@@H](C)C(=O)N[C@@H](CCCNC(=N)N)C(=O)N[C@@H](Cc2ccccc2)C(=O)N[C@H](C(=O)O)CSSC[C@@H](C(=O)NCC(=O)N[C@@H](CCSC)C(=O)N[C@@H](CO)C(=O)N[C@H](C(=O)N[C@@H](Cc2c[nH]c3ccccc23)C(=O)N[C@@H](CO)C(=O)O)[C@@H](C)O)NC1=O` [AQ1-GGGEEE-Glu^γ-C13-COOH], for which, under setting [1], the AUC(0-inf) stood at 0.866 µM·h and the level at time molar at 24 h turned out to be 0.18 nM.

Consider `CC[C@H](C)[C@@H]1NC(=O)[C@H](C)NC(=O)[C@H]([C@@H](C)CC)NC(=O)[C@H](CCC(N)=O)NC(=O)[C@H](C)NC(=O)[C@H](CCCNC(=N)N)NC(=O)[C@H](C(C)C)NC(=O)[C@H](CC(C)C)NC(=O)[C@H](CCC(=O)O)NC(=O)[C@H](CCCNC(=N)N)NC(=O)CNC(=O)[C@@H](NC(=O)[C@H](CC(C)C)NC(=O)[C@H](CCCCN)NC(=O)[C@@H](NC(=O)[C@@H](NC(=O)[C@H](CCC(=O)O)NC(=O)[C@H](CCC(=O)O)NC(=O)[C@H](CCSC)NC(=O)[C@H](Cc2c[nH]c3ccccc23)NC(=O)[C@H](CO)NC(=O)[C@H](C)N)C(C)C)[C@@H](C)CC)CSSC[C@@H]2NC(=O)[C@@H](NC(=O)[C@H](CCCCN)NC(=O)[C@H](CC(N)=O)NC(=O)[C@H](C)NC(=O)[C@H](CC(C)C)NC(=O)[C@H](C)NC(=O)[C@H](CO)NC(=O)[C@H](Cc3ccc(O)cc3)NC(=O)[C@H](CC(C)C)NC(=O)[C@@H](N)Cc3ccc(C(C)=NOCCNC(=O)[C@H](CCCCN)NC(=O)[C@H](CCCCN)NC(=O)CC[C@H](NC(=O)CCCCCCCCCCCCCCC(=O)O)C(=O)O)cc3)CSSC[C@H](NC(=O)CNC(=O)[C@H](C(C)C)NC(=O)[C@H](Cc3c[nH]cn3)NC2=O)C(=O)N[C@@H]([C@@H](C)O)C(=O)N[C@@H](CCCCN)C(=O)N[C@@H](CCCNC(=N)N)C(=O)N[C@@H](CO)C(=O)N[C@@H](CC(C)C)C(=O)N[C@@H](C)C(=O)N[C@@H](CCCNC(=N)N)C(=O)N[C@@H](Cc2ccccc2)C(=O)N[C@H](C(=O)O)CSSC[C@@H](C(=O)NCC(=O)N[C@@H](CCSC)C(=O)N[C@@H](CO)C(=O)N[C@H](C(=O)N[C@@H](Cc2c[nH]c3ccccc23)C(=O)N[C@@H](CO)C(=O)O)[C@@H](C)O)NC1=O` [AQ1-KK-Glu^γ-C15-COOH], for which, under setting [1], the AUC(0-inf) amounted to 0.82 µM·h and the level at time molar at 24 h stood at 8.8 nM.
